How the values were obtained:
[1] = target: T1, recombinant human TNFR2 with 6×his tag (human, UniProt P20333 23-257, limits assumed); assay: ELISA, IgG coated, hTNFR2-His titrated, anti-His-HRP
T1 construct: Bought (Reprokine, Israel); also called TNFR2-His; hTNFR2-His; not shown: 6xHis tag
T1 sequence (looked up): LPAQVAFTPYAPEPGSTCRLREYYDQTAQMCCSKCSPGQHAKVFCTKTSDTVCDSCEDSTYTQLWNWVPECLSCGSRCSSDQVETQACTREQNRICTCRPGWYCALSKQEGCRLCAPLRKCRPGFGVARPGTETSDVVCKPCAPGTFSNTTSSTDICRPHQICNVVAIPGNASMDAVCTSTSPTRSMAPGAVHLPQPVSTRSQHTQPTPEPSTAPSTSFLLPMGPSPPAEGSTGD
Description: (§1) IgG binding affinity to TNFR2 was examined by ELISA. 96 well plates (Greiner Bio-One high binding) were coated with (50 ng/well) of the analyzed antibody and incubated overnight at 4° C. The plates were then washed three times with 300 μl PBS buffer containing 0.05% Tween 20 (PBS-T), blocked with 300μ PBS-T supplemented with 1% to 2% BSA, and incubated for 1 hour at room temperature. Antibodies-coated plates were washed three times with 300 μl PBS-T and incubated with serial dilutions of test ligand hTNFR2-His (Reprokine, Israel) in a final volume of […] for 1-2 hours. Plates were then washed three times with 300 μl PBS-T and incubated with 50 μl anti-HIS-HRP (Santa Cruz Biotechnology, USA, SC-8036HRP) conjugate that was diluted 1:250 in PBS. After an additional wash step of six washes, the reaction was developed with […] tetramethylbenzidine (TMB) reagent (Southern biotech, USA), and stopped with […] 0.5N H₂SO₄. Detection was done on a Synergy LX BioTek (BioTek, USA) plate reader with an absorbance filter set to […]. The binding affinity was determined by fitting the data to a specific binding non-linear regression model on Prisma 8 GraphPad software.
(§2) To test binding affinity of clones reformatted as IgG1 and IgG1LALA to TNFR2, an ELISA EC₅₀ binding experiment was conducted for each antibody.

[2] = target: T1, recombinant human TNFR2 with 6×his tag; assay: ELISA, IgG coated, soluble TNFR2-His titrated
Description: as §1, §2

EC50 [1]: 66.3 nM
EC50 [2]: 66 nM
B1: BDG30.080 (antibody, human IgG1, kappa, V domains shown)
VH: EVQLVESGGGLVQPGGSLRLSCAASGFNIRAMYIHWVRQSPGKGLEWVADIDPTNGDTRYADSVKGRFTISADTSKNTAYLQMNSLRAEDTAIYYCTREGQDGYNAFDKWGQGTLVTVSS
VL: DIQMTQSPILLSASVGDRVTITCRASQDVSTAVAWSQQRTNGSPRLLIYSASSLYSGVPSRFSGSRSGTDFTLTISSLQPEDIADYYCQQHRYTPPTFGAGTKVEIKR
notes: Human IgG1; also called IgG of CID_229
